Among the data in patent US20220064312A1 are IC50 ratio (WT IC50/mutant IC50) and IC50 (n.d.: 10 nM or more) values, retold here.

The chains are these.
B1: h10A11 IGKV4-1/IGHV3-73 T31A (antibody, name in Kabat numbering, V domains shown)
VH: EVQLVESGGGLVQPGGSLKLSCAASGFAFNAYALYWVRQASGKGLEWVGRIRSKSNNYATYYADSVKDRFTISRDDSKNTAYLQMNSLKTEDTAVYYCTRARFYYSDYGYAMDYWGQGTLVTVSS
VL: DIVMTQSPDSLAVSLGERATINCRSSKSLLHSNGNTYLYWYQQKPGQPPKLLIYRMSNLASGVPDRFSGSGSGTDFTLTISSLQAEDVAVYYCMQHLEYPLTFGQGTKLEIKR
B2: h10A11 IGKV4-1/IGHV3-73 D61E (antibody, name in Kabat numbering, V domains shown)
VH: EVQLVESGGGLVQPGGSLKLSCAASGFAFNTYALYWVRQASGKGLEWVGRIRSKSNNYATYYAESVKDRFTISRDDSKNTAYLQMNSLKTEDTAVYYCTRARFYYSDYGYAMDYWGQGTLVTVSS
VL: DIVMTQSPDSLAVSLGERATINCRSSKSLLHSNGNTYLYWYQQKPGQPPKLLIYRMSNLASGVPDRFSGSGSGTDFTLTISSLQAEDVAVYYCMQHLEYPLTFGQGTKLEIKR
B3: h10A11 IGKV4-1/IGHV3-73 A60V (antibody, name in Kabat numbering, V domains shown)
VH: EVQLVESGGGLVQPGGSLKLSCAASGFAFNTYALYWVRQASGKGLEWVGRIRSKSNNYATYYVDSVKDRFTISRDDSKNTAYLQMNSLKTEDTAVYYCTRARFYYSDYGYAMDYWGQGTLVTVSS
VL: DIVMTQSPDSLAVSLGERATINCRSSKSLLHSNGNTYLYWYQQKPGQPPKLLIYRMSNLASGVPDRFSGSGSGTDFTLTISSLQAEDVAVYYCMQHLEYPLTFGQGTKLEIKR
B4: h10A11 IGKV4-1/IGHV3-73 K52bR (antibody, name in Kabat numbering, V domains shown)
VH: EVQLVESGGGLVQPGGSLKLSCAASGFAFNTYALYWVRQASGKGLEWVGRIRSRSNNYATYYADSVKDRFTISRDDSKNTAYLQMNSLKTEDTAVYYCTRARFYYSDYGYAMDYWGQGTLVTVSS
VL: DIVMTQSPDSLAVSLGERATINCRSSKSLLHSNGNTYLYWYQQKPGQPPKLLIYRMSNLASGVPDRFSGSGSGTDFTLTISSLQAEDVAVYYCMQHLEYPLTFGQGTKLEIKR
B5: h10A11 IGKV4-1/IGHV3-73 Y59F (antibody, name in Kabat numbering, V domains shown)
VH: EVQLVESGGGLVQPGGSLKLSCAASGFAFNTYALYWVRQASGKGLEWVGRIRSKSNNYATYFADSVKDRFTISRDDSKNTAYLQMNSLKTEDTAVYYCTRARFYYSDYGYAMDYWGQGTLVTVSS
VL: DIVMTQSPDSLAVSLGERATINCRSSKSLLHSNGNTYLYWYQQKPGQPPKLLIYRMSNLASGVPDRFSGSGSGTDFTLTISSLQAEDVAVYYCMQHLEYPLTFGQGTKLEIKR
B6: h10A11 IGKV4-1/IGHV3-73 S52cT (antibody, name in Kabat numbering, V domains shown)
VH: EVQLVESGGGLVQPGGSLKLSCAASGFAFNTYALYWVRQASGKGLEWVGRIRSKTNNYATYYADSVKDRFTISRDDSKNTAYLQMNSLKTEDTAVYYCTRARFYYSDYGYAMDYWGQGTLVTVSS
VL: DIVMTQSPDSLAVSLGERATINCRSSKSLLHSNGNTYLYWYQQKPGQPPKLLIYRMSNLASGVPDRFSGSGSGTDFTLTISSLQAEDVAVYYCMQHLEYPLTFGQGTKLEIKR
B7: h10A11 IGKV4-1/IGHV3-73 Y58F (antibody, name in Kabat numbering, V domains shown)
VH: EVQLVESGGGLVQPGGSLKLSCAASGFAFNTYALYWVRQASGKGLEWVGRIRSKSNNYATFYADSVKDRFTISRDDSKNTAYLQMNSLKTEDTAVYYCTRARFYYSDYGYAMDYWGQGTLVTVSS
VL: DIVMTQSPDSLAVSLGERATINCRSSKSLLHSNGNTYLYWYQQKPGQPPKLLIYRMSNLASGVPDRFSGSGSGTDFTLTISSLQAEDVAVYYCMQHLEYPLTFGQGTKLEIKR
B8: h10A11 IGKV4-1/IGHV3-73 Y32F (antibody, name in Kabat numbering, V domains shown)
VH: EVQLVESGGGLVQPGGSLKLSCAASGFAFNTFALYWVRQASGKGLEWVGRIRSKSNNYATYYADSVKDRFTISRDDSKNTAYLQMNSLKTEDTAVYYCTRARFYYSDYGYAMDYWGQGTLVTVSS
VL: DIVMTQSPDSLAVSLGERATINCRSSKSLLHSNGNTYLYWYQQKPGQPPKLLIYRMSNLASGVPDRFSGSGSGTDFTLTISSLQAEDVAVYYCMQHLEYPLTFGQGTKLEIKR
B9: h10A11 IGKV4-1/IGHV3-73 L34I (antibody, name in Kabat numbering, V domains shown)
VH: EVQLVESGGGLVQPGGSLKLSCAASGFAFNTYAIYWVRQASGKGLEWVGRIRSKSNNYATYYADSVKDRFTISRDDSKNTAYLQMNSLKTEDTAVYYCTRARFYYSDYGYAMDYWGQGTLVTVSS
VL: DIVMTQSPDSLAVSLGERATINCRSSKSLLHSNGNTYLYWYQQKPGQPPKLLIYRMSNLASGVPDRFSGSGSGTDFTLTISSLQAEDVAVYYCMQHLEYPLTFGQGTKLEIKR
B10: h10A11 IGKV4-1/IGHV3-73 Y35F (antibody, name in Kabat numbering, V domains shown)
VH: EVQLVESGGGLVQPGGSLKLSCAASGFAFNTYALFWVRQASGKGLEWVGRIRSKSNNYATYYADSVKDRFTISRDDSKNTAYLQMNSLKTEDTAVYYCTRARFYYSDYGYAMDYWGQGTLVTVSS
VL: DIVMTQSPDSLAVSLGERATINCRSSKSLLHSNGNTYLYWYQQKPGQPPKLLIYRMSNLASGVPDRFSGSGSGTDFTLTISSLQAEDVAVYYCMQHLEYPLTFGQGTKLEIKR
B11: h10A11 IGKV4-1/IGHV3-73 A33V (antibody, name in Kabat numbering, V domains shown)
VH: EVQLVESGGGLVQPGGSLKLSCAASGFAFNTYVLYWVRQASGKGLEWVGRIRSKSNNYATYYADSVKDRFTISRDDSKNTAYLQMNSLKTEDTAVYYCTRARFYYSDYGYAMDYWGQGTLVTVSS
VL: DIVMTQSPDSLAVSLGERATINCRSSKSLLHSNGNTYLYWYQQKPGQPPKLLIYRMSNLASGVPDRFSGSGSGTDFTLTISSLQAEDVAVYYCMQHLEYPLTFGQGTKLEIKR
B12: h10A11 IGKV4-1/IGHV3-73 R50K (antibody, name in Kabat numbering, V domains shown)
VH: EVQLVESGGGLVQPGGSLKLSCAASGFAFNTYALYWVRQASGKGLEWVGKIRSKSNNYATYYADSVKDRFTISRDDSKNTAYLQMNSLKTEDTAVYYCTRARFYYSDYGYAMDYWGQGTLVTVSS
VL: DIVMTQSPDSLAVSLGERATINCRSSKSLLHSNGNTYLYWYQQKPGQPPKLLIYRMSNLASGVPDRFSGSGSGTDFTLTISSLQAEDVAVYYCMQHLEYPLTFGQGTKLEIKR
B13: h10A11 IGKV4-1/IGHV3-73 I51L (antibody, name in Kabat numbering, V domains shown)
VH: EVQLVESGGGLVQPGGSLKLSCAASGFAFNTYALYWVRQASGKGLEWVGRLRSKSNNYATYYADSVKDRFTISRDDSKNTAYLQMNSLKTEDTAVYYCTRARFYYSDYGYAMDYWGQGTLVTVSS
VL: DIVMTQSPDSLAVSLGERATINCRSSKSLLHSNGNTYLYWYQQKPGQPPKLLIYRMSNLASGVPDRFSGSGSGTDFTLTISSLQAEDVAVYYCMQHLEYPLTFGQGTKLEIKR
B14: h10A11 IGKV4-1/IGHV3-73 A56V (antibody, name in Kabat numbering, V domains shown)
VH: EVQLVESGGGLVQPGGSLKLSCAASGFAFNTYALYWVRQASGKGLEWVGRIRSKSNNYVTYYADSVKDRFTISRDDSKNTAYLQMNSLKTEDTAVYYCTRARFYYSDYGYAMDYWGQGTLVTVSS
VL: DIVMTQSPDSLAVSLGERATINCRSSKSLLHSNGNTYLYWYQQKPGQPPKLLIYRMSNLASGVPDRFSGSGSGTDFTLTISSLQAEDVAVYYCMQHLEYPLTFGQGTKLEIKR
B15: h10A11 IGKV4-1/IGHV3-73 N53Q (antibody, name in Kabat numbering, V domains shown)
VH: EVQLVESGGGLVQPGGSLKLSCAASGFAFNTYALYWVRQASGKGLEWVGRIRSKSQNYATYYADSVKDRFTISRDDSKNTAYLQMNSLKTEDTAVYYCTRARFYYSDYGYAMDYWGQGTLVTVSS
VL: DIVMTQSPDSLAVSLGERATINCRSSKSLLHSNGNTYLYWYQQKPGQPPKLLIYRMSNLASGVPDRFSGSGSGTDFTLTISSLQAEDVAVYYCMQHLEYPLTFGQGTKLEIKR
B16: h10A11 IGKV4-1/IGHV3-73 Y55F (antibody, name in Kabat numbering, V domains shown)
VH: EVQLVESGGGLVQPGGSLKLSCAASGFAFNTYALYWVRQASGKGLEWVGRIRSKSNNFATYYADSVKDRFTISRDDSKNTAYLQMNSLKTEDTAVYYCTRARFYYSDYGYAMDYWGQGTLVTVSS
VL: DIVMTQSPDSLAVSLGERATINCRSSKSLLHSNGNTYLYWYQQKPGQPPKLLIYRMSNLASGVPDRFSGSGSGTDFTLTISSLQAEDVAVYYCMQHLEYPLTFGQGTKLEIKR
B17: h10A11 IGKV4-1/IGHV3-73 R52K (antibody, name in Kabat numbering, V domains shown)
VH: EVQLVESGGGLVQPGGSLKLSCAASGFAFNTYALYWVRQASGKGLEWVGRIKSKSNNYATYYADSVKDRFTISRDDSKNTAYLQMNSLKTEDTAVYYCTRARFYYSDYGYAMDYWGQGTLVTVSS
VL: DIVMTQSPDSLAVSLGERATINCRSSKSLLHSNGNTYLYWYQQKPGQPPKLLIYRMSNLASGVPDRFSGSGSGTDFTLTISSLQAEDVAVYYCMQHLEYPLTFGQGTKLEIKR
B18: h10A11 IGKV4-1/IGHV3-73 S52aT (antibody, name in Kabat numbering, V domains shown)
VH: EVQLVESGGGLVQPGGSLKLSCAASGFAFNTYALYWVRQASGKGLEWVGRIRTKSNNYATYYADSVKDRFTISRDDSKNTAYLQMNSLKTEDTAVYYCTRARFYYSDYGYAMDYWGQGTLVTVSS
VL: DIVMTQSPDSLAVSLGERATINCRSSKSLLHSNGNTYLYWYQQKPGQPPKLLIYRMSNLASGVPDRFSGSGSGTDFTLTISSLQAEDVAVYYCMQHLEYPLTFGQGTKLEIKR
B19: h10A11 IGKV4-1/IGHV3-73 T57S (antibody, name in Kabat numbering, V domains shown)
VH: EVQLVESGGGLVQPGGSLKLSCAASGFAFNTYALYWVRQASGKGLEWVGRIRSKSNNYASYYADSVKDRFTISRDDSKNTAYLQMNSLKTEDTAVYYCTRARFYYSDYGYAMDYWGQGTLVTVSS
VL: DIVMTQSPDSLAVSLGERATINCRSSKSLLHSNGNTYLYWYQQKPGQPPKLLIYRMSNLASGVPDRFSGSGSGTDFTLTISSLQAEDVAVYYCMQHLEYPLTFGQGTKLEIKR
B20: h10A11 IGKV4-1/IGHV3-73 S62T (antibody, name in Kabat numbering, V domains shown)
VH: EVQLVESGGGLVQPGGSLKLSCAASGFAFNTYALYWVRQASGKGLEWVGRIRSKSNNYATYYADTVKDRFTISRDDSKNTAYLQMNSLKTEDTAVYYCTRARFYYSDYGYAMDYWGQGTLVTVSS
VL: DIVMTQSPDSLAVSLGERATINCRSSKSLLHSNGNTYLYWYQQKPGQPPKLLIYRMSNLASGVPDRFSGSGSGTDFTLTISSLQAEDVAVYYCMQHLEYPLTFGQGTKLEIKR

The target of the assay is human CCR8 (human) (UniProt P51685). In words: cell-based or functional assay.
human CCR8 (human), sequence (P51685 whole entry): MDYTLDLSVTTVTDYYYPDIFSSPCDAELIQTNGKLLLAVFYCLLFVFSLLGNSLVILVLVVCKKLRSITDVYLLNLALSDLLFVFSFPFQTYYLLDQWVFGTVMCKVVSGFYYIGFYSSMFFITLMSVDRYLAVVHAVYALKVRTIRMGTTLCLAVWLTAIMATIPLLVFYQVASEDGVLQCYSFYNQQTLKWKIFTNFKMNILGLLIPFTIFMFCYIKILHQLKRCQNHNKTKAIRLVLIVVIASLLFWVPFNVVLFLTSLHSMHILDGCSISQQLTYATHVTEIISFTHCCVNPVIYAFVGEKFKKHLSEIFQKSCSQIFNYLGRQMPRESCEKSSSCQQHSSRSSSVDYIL
With B1, the IC50 ratio (WT IC50/mutant IC50) is 0.17. Take B2: the IC50 ratio (WT IC50/mutant IC50) was determined as 0.25. On the same count and under the same terms, with B3 the figure was 0.67. Consider B4, for which the IC50 ratio (WT IC50/mutant IC50) worked out at 0.47. Take B5: the IC50 ratio (WT IC50/mutant IC50) is 0.03. On the same count and under the same terms, in the case of B6 it was 0.53; in that of B7, 0.5. Still for that read-out and setting: with B8 the figure was 0.44; with B9, 0.43. For the molecule B10, the IC50 (n.d.: 10 nM or more) was greater than 10 nM. The molecule B11 showed an IC50 (n.d.: 10 nM or more) greater than 10 nM. For B12, the IC50 ratio (WT IC50/mutant IC50) amounted to 0.12. On the same count and under the same terms, in the case of B13 it was 0.22.

In the case of B14, the IC50 ratio (WT IC50/mutant IC50) is 0.55. Same read-out and setting: in the case of B15 it was 0.03. Take B16: the IC50 ratio (WT IC50/mutant IC50) is 0.47. As for B17, the IC50 (n.d.: 10 nM or more) is greater than 10 nM.

As for B18, the IC50 ratio (WT IC50/mutant IC50) turned out to be 0.22.

Regarding B19, the IC50 ratio (WT IC50/mutant IC50) is 0.49. For B20, the IC50 ratio (WT IC50/mutant IC50) came to 1.6.
